Where “and” joins values, the source holds several entries; their conditions need not be identical. Equal values may be shown once.
Assays:
[1] = target: the molecule itself; experiment: native gel or EMSA; PhastGel gradient 8-25%, room temperature; 1 mg/mL (methods), 2 mg/mL (legend of Fig 1D); Coomassie stained
[2] = target: the molecule itself; experiment: AUC; sedimentation equilibrium; tetramer to dimers; 0.5, 0.75 and 1.0 mg/mL; 8,000, 10,000 and 12,000 rpm, 4°C; global fit in SEDPHAT

B1: Trypanosoma brucei selenophosphate synthetase (TbSEPHS2), recombinant full-length (enzyme, UniProt Q38A34 1-393, looked up)
chain: MSEKEGKVIPETNGMKRPRFDPVKLGLPEEFTLTDYTRLKGCSCKVPQPELLALLQSVSTTPGRRDVGMDCSIVKLQHKDETGKPLYMVSTTDFFFPSVEDPYLQGQIGAANVLSDLYSTGIDRCDTVLMLLAASTDMDKTEREVCTQEMMKGFVDHVRLAGSDVTGGQTVMNPWPLIGGIATSVVAESQMIRPTGLQPGDILVLTKPLGCQIAVNLKQWLRRPSPIFEEQIQGKMDSEEIEELYNAAADGMKRLNRMAAALMHSHGAHGATDVTGFGILGHAKNLGSAQKADVCLVLDSLPMYRGAVKASKLMGDKYRLFEGYAAETSGGLLVAFGTREEAEGYIRELYETDGEPAWVVGRVVRREGSAPYALLQKDYKIIEVGAKVNDKII
notes: selenophosphate synthetase SEPHS2 of Trypanosoma brucei, Tb927.10.9410, 393 residues (from the limits of the truncated constructs); also called SPS2; TbSPSH2
stoichiometry N [1]: 2 and 4
Kd [2]: 161 ± 10 µM

Reference: paper PMC7595633 (PLoS Neglected Tropical Diseases, 2020)
